Source: patent publication US20230365675A1 (published 2023)

B1: sdCD33_6 (VHH)
VHH: EVQLVESGGGLVQPRGSLRLSCVVSGSMSSIYSMSWYRQPPGKQRELVAHITTTGTTNYIDSVKGRFTISIDNDINVIYLQMNTLKPEDTAVYYCNAGLKAGPGPRLDYWGLGTQVTVSS
notes: sdAb from a naive llama phage library; also called 416; sdAb416
B2: sdCD33_9 (VHH)
VHH: QVKLEESGGGLVRAGGSLRLSCAASGGTFSTYAMAWFRQAPGKEREFVAAITWGGGSTYYEDSVKGRFTISRDNAKNTGVLQMNNLDVDDTAVYYCYAFGRSRAGDANGDYWGQGTQVTVSS
notes: sdAb from a naive llama phage library; also called 426; sdAb426
B3: sdCD33_8 (VHH)
VHH: QVQLVESGGGLVQAGGSLRLSCAASGGAFSTYTMGWFRQAPGKEREFVAAIAWTGTHTYYSDSVKGRFTISRDNDKNTVFLQMNSLKPEDTAVYYCAQASSRYRAVTDSLSENHWGPGTQVTVST
notes: sdAb from a naive llama phage library; also called 424; sdAb424
B4: sdCD33_7 (VHH)
VHH: EVQLVESGGGLVQPGGSLRLSCVASGFTFKDYGMTWVRQAPGKALEWVSDINSAGDGIYYSDSVKGRFTISRDDSKGTLYLQMNSLTPEDTAIYYCAAERQRAGDVKRSLAPITAHIWGQGTQVTVSS
notes: sdAb from a naive llama phage library; also called 420; sdAb420

Experiments:
[1] = target: CD33-GFP fusion protein, wild type (WT), on 293FT cells (UniProt P20138); experiment: FACS, WT CD33-GFP on 293FT cells
[2] = target: Mutant CD33-GFP JS23 (L23N) on 293FT cells (UniProt P20138); experiment: FACS, mutant CD33-GFP on 293FT cells
[3] = target: Mutant CD33-GFP JS24 (Q24E) on 293FT cells (UniProt P20138); experiment: FACS, mutant CD33-GFP on 293FT cells
[4] = target: Mutant CD33-GFP JS25 (V25M) on 293FT cells (UniProt P20138); experiment: FACS, mutant CD33-GFP on 293FT cells
[5] = target: Mutant CD33-GFP JS28 (S28L) on 293FT cells (UniProt P20138); experiment: FACS, mutant CD33-GFP on 293FT cells
[6] = target: Mutant CD33-GFP M10 (Y127A) on 293FT cells (UniProt P20138); experiment: FACS, mutant CD33-GFP on 293FT cells
[7] = target: Mutant CD33-GFP M11 (L78T) on 293FT cells (UniProt P20138); experiment: FACS, mutant CD33-GFP on 293FT cells
[8] = target: Mutant CD33-GFP M12 (G88S) on 293FT cells (UniProt P20138); experiment: FACS, mutant CD33-GFP on 293FT cells
[9] = target: Mutant CD33-GFP M13 (R91E) on 293FT cells (UniProt P20138); experiment: FACS, mutant CD33-GFP on 293FT cells
[10] = target: Mutant CD33-GFP M14 (E170R) on 293FT cells (UniProt P20138); experiment: FACS, mutant CD33-GFP on 293FT cells
[11] = target: Mutant CD33-GFP M15 (Q171A) on 293FT cells (UniProt P20138); experiment: FACS, mutant CD33-GFP on 293FT cells
[12] = target: Mutant CD33-GFP M16 (4889AII) on 293FT cells (UniProt P20138); experiment: FACS, mutant CD33-GFP on 293FT cells
[13] = target: Mutant CD33-GFP M17 (F21Y) on 293FT cells (UniProt P20138); experiment: FACS, mutant CD33-GFP on 293FT cells
[14] = target: Mutant CD33-GFP M18 (353AAL) on 293FT cells (UniProt P20138); experiment: FACS, mutant CD33-GFP on 293FT cells
[15] = target: Mutant CD33-GFP M19 (348ATAI) on 293FT cells (UniProt P20138); experiment: FACS, mutant CD33-GFP on 293FT cells
[16] = target: Mutant CD33-GFP M4 (R122D) on 293FT cells (UniProt P20138); experiment: FACS, mutant CD33-GFP on 293FT cells
[17] = target: Mutant CD33-GFP M5 (AEAD), quadruple mutant, on 293FT cells (UniProt P20138); experiment: FACS, mutant CD33-GFP on 293FT cells
[18] = target: Mutant CD33-GFP M9 (Y49, 50A) on 293FT cells (UniProt P20138); experiment: FACS, mutant CD33-GFP on 293FT cells
[19] = target: Mutant CD33-GFP N20D on 293FT cells (UniProt P20138); experiment: FACS, mutant CD33-GFP on 293FT cells
[20] = target: T1, Mutant CD33-GFP M1 (W22A) on 293FT cells (UniProt P20138 18-364); experiment: FACS, mutant CD33-GFP on 293FT cells
T1 construct: whole, on cells; not shown: GFP fused to CD33

[21] = target: T2, Mutant CD33-GFP M2 (H45E) on 293FT cells (UniProt P20138 18-364); experiment: FACS, mutant CD33-GFP on 293FT cells
T2 construct: whole, on cells; not shown: GFP fused to CD33

[22] = target: T3, Mutant CD33-GFP M3 (N99A) on 293FT cells (UniProt P20138 18-364); experiment: FACS, mutant CD33-GFP on 293FT cells
T3 construct: whole, on cells; not shown: GFP fused to CD33

[23] = target: T4, Mutant CD33-GFP M6 (F43N) on 293FT cells (UniProt P20138 18-364); experiment: FACS, mutant CD33-GFP on 293FT cells
T4 construct: whole, on cells; not shown: GFP fused to CD33

[24] = target: T5, Mutant CD33-GFP M7 (R98D) on 293FT cells (UniProt P20138 18-364); experiment: FACS, mutant CD33-GFP on 293FT cells
T5 construct: whole, on cells; not shown: GFP fused to CD33

[25] = target: T6, Mutant CD33-GFP M8 (K52A) on 293FT cells (UniProt P20138 18-364); experiment: FACS, mutant CD33-GFP on 293FT cells
T6 construct: whole, on cells; not shown: GFP fused to CD33

[26] = target: Biotinylated CD33 protein (UniProt P20138); experiment: Octet competition on biotinylated CD33; competitor 348
[27] = target: Biotinylated CD33 protein (UniProt P20138); experiment: Octet competition on biotinylated CD33; competitor 353
[28] = target: Biotinylated CD33 protein (UniProt P20138); experiment: Octet competition on biotinylated CD33; competitor 389
[29] = target: Biotinylated CD33 protein (UniProt P20138); experiment: Octet competition on biotinylated CD33; competitor 413
[30] = target: Biotinylated CD33 protein (UniProt P20138); experiment: Octet competition on biotinylated CD33; competitor 420
[31] = target: Biotinylated CD33 protein (UniProt P20138); experiment: Octet competition on biotinylated CD33; competitor 424
[32] = target: Biotinylated CD33 protein (UniProt P20138); experiment: Octet competition on biotinylated CD33; competitor 426
[33] = target: Biotinylated CD33 protein (UniProt P20138); experiment: Octet competition on biotinylated CD33; competitor 429
[34] = target: Biotinylated CD33 protein (UniProt P20138); experiment: Octet competition on biotinylated CD33; competitor 430
[35] = target: Biotinylated CD33 protein (UniProt P20138); experiment: Octet competition on biotinylated CD33; competitor h195
CD33 on MOLM-13 cells = target: T7, CD33 on MOLM-13 cells (human, UniProt P20138 18-364); experiment: FACS, MOLM-13 cells expressing CD33 against MOLM-13 CD33 knockout
T7 construct: whole, on cells; also called MOLM-13 cell line expressing CD33; wild-type MOLM-13 cells (CD33+)
Source text: A naïve llama phage library was panned and screened to identify single domain antibodies that specifically recognize CD33. A MOLM-13 cell line expressing CD33 was used as a CD33-positive cell line, and a MOLM-13 cell line harboring a knockout of CD33 was used as a CD-33 negative cell line. A purified anti-human CD33 antibody was used as a positive control. Specific binding activity of identified binders was confirmed by FACS. The heavy chain variable region sequences of the identified binders are included herein.

[36] = target: Biotinylated CD33 protein (UniProt P20138); experiment: Octet competition on biotinylated CD33; competitor 416

Chain of Mutant CD33-GFP M4 (R122D) on 293FT cells (P20138 18-364 R122D): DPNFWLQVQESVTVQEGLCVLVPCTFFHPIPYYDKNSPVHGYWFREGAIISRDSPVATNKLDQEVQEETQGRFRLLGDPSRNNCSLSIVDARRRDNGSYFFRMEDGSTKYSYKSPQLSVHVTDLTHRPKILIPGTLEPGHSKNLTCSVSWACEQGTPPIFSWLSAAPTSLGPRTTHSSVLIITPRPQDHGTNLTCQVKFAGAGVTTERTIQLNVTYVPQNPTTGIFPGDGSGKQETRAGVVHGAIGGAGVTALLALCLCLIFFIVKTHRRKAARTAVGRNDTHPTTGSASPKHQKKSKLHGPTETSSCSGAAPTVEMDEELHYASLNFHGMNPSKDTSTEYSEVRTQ
Chain of Mutant CD33-GFP M14 (E170R) on 293FT cells (P20138 18-364 E170R): as the sequence (P20138 18-364 R122D) above, with D105R, E153R counted along it
Chain of Mutant CD33-GFP M15 (Q171A) on 293FT cells (P20138 18-364 Q171A): as the sequence (P20138 18-364 R122D) above, with D105R, Q154A counted along it
T7 sequence (P20138 18-364): as the sequence (P20138 18-364 R122D) above, with D105R counted along it
Chain of CD33-GFP fusion protein, wild type (WT), on 293FT cells (P20138 18-364): as the sequence (P20138 18-364 R122D) above, with D105R counted along it
T6 sequence (P20138 18-364 K52A): as the sequence (P20138 18-364 R122D) above, with K35A, D105R counted along it
Chain of Biotinylated CD33 protein (P20138 18-259 limits assumed): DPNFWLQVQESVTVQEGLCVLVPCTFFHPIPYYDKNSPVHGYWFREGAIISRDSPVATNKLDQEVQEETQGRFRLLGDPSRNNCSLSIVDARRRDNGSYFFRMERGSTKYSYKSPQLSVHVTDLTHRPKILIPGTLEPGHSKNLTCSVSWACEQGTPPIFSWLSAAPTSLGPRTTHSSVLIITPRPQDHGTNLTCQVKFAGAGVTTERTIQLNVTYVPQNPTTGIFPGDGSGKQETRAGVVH
Chain of Mutant CD33-GFP JS28 (S28L) on 293FT cells (P20138 18-364 S28L): as the sequence (P20138 18-364 R122D) above, with S11L, D105R counted along it
Chain of Mutant CD33-GFP M13 (R91E) on 293FT cells (P20138 18-364 R91E): as the sequence (P20138 18-364 R122D) above, with R74E, D105R counted along it
Chain of Mutant CD33-GFP M12 (G88S) on 293FT cells (P20138 18-364 G88S): as the sequence (P20138 18-364 R122D) above, with G71S, D105R counted along it
Chain of Mutant CD33-GFP M11 (L78T) on 293FT cells (P20138 18-364 L78T): as the sequence (P20138 18-364 R122D) above, with L61T, D105R counted along it
Chain of Mutant CD33-GFP M9 (Y49, 50A) on 293FT cells (P20138 other isoform, or with tags, fused parts or gaps mutant): as the sequence (P20138 18-364 R122D) above, with Y32A, Y33A, D105R counted along it
Chain of Mutant CD33-GFP N20D on 293FT cells (P20138 18-364 N20D): as the sequence (P20138 18-364 R122D) above, with N3D, D105R counted along it
T2 sequence (P20138 18-364 H45E): as the sequence (P20138 18-364 R122D) above, with H28E, D105R counted along it
Chain of Mutant CD33-GFP M5 (AEAD), quadruple mutant, on 293FT cells (P20138 other isoform, or with tags, fused parts or gaps mutant): as the sequence (P20138 18-364 R122D) above, with W5A, H28E, N82A counted along it
T3 sequence (P20138 18-364 N99A): as the sequence (P20138 18-364 R122D) above, with N82A, D105R counted along it
T1 sequence (P20138 18-364 W22A): as the sequence (P20138 18-364 R122D) above, with W5A, D105R counted along it
Chain of Mutant CD33-GFP JS23 (L23N) on 293FT cells (P20138 18-364 L23N): as the sequence (P20138 18-364 R122D) above, with L6N, D105R counted along it
T5 sequence (P20138 18-364 R98D): as the sequence (P20138 18-364 R122D) above, with R81D, D105R counted along it
Chain of Mutant CD33-GFP JS25 (V25M) on 293FT cells (P20138 18-364 V25M): as the sequence (P20138 18-364 R122D) above, with V8M, D105R counted along it
Chain of Mutant CD33-GFP M17 (F21Y) on 293FT cells (P20138 18-364 F21Y): as the sequence (P20138 18-364 R122D) above, with F4Y, D105R counted along it
Chain of Mutant CD33-GFP JS24 (Q24E) on 293FT cells (P20138 18-364 Q24E): as the sequence (P20138 18-364 R122D) above, with Q7E, D105R counted along it
T4 sequence (P20138 18-364 F43N): as the sequence (P20138 18-364 R122D) above, with F26N, D105R counted along it
Chain of Mutant CD33-GFP M10 (Y127A) on 293FT cells (P20138 18-364 Y127A): as the sequence (P20138 18-364 R122D) above, with D105R, Y110A counted along it

| Binder | FACS binding data [1] | FACS binding data [2] | FACS binding data [3] | FACS binding data [4] | FACS binding data [5] | FACS binding data [6] | FACS binding data [7] | FACS binding data [8] | FACS binding data [9] | FACS binding data [10] | FACS binding data [11] | FACS binding data [12] | FACS binding data [13] | FACS binding data [14] | FACS binding data [15] | FACS binding data [16] | FACS binding data [17] | FACS binding data [18] | FACS binding data [19] | FACS binding data [20] | other results |
| --- | --- | --- | --- | --- | --- | --- | --- | --- | --- | --- | --- | --- | --- | --- | --- | --- | --- | --- | --- | --- | --- |
| B1 | 98.8 | 94.3 | 98.6 | 99 | 99.6 | 98.9 | 45.1 | 99.1 | 99.2 | 99 | 98.9 | 80.8 | 99.1 | 99.8 | 99.6 | 99.3 | 0.24 | 99.1 | 99 | 1.25 | FACS binding data [21]: 96.6; FACS binding data [22]: 98.7; FACS binding data [23]: 97.9; FACS binding data [24]: 98.6; FACS binding data [25]: 98.9; Octet signal [26]: 0.229; Octet signal [27]: 0.438; Octet signal [28]: 0.456; Octet signal [29]: 0.376; Octet signal [30]: 0.34; Octet signal [31]: 0.22; Octet signal [32]: 0.514; Octet signal [33]: 0.261; Octet signal [34]: 0.697; Octet signal [35]: 0.565; binding result (CD33 on MOLM-13 cells): binds |
| B2 | 99.2 | 99.2 | 99.4 | 99.7 | 99.7 | 96.1 | 77.8 | 99.2 | 99.3 | 99.2 | 99.3 | 99 | 99.1 | 99.3 | 99.8 | 95.9 | 1.2 | 1.25 | 99.1 | 99.5 | FACS binding data [21]: 97.7; FACS binding data [22]: 99.5; FACS binding data [23]: 99.2; FACS binding data [24]: 99.1; FACS binding data [25]: 96.8; Octet signal [26]: 0.183; Octet signal [27]: 0.259; Octet signal [28]: 0.53; Octet signal [29]: 0.257; Octet signal [36]: 0.304; Octet signal [30]: 0.191; Octet signal [31]: 0.0441; Octet signal [33]: 0.0225; Octet signal [34]: 0.538; Octet signal [35]: 0.743; binding result (CD33 on MOLM-13 cells): binds |
| B3 | 98.6 | 97.8 | 99.4 | 99.6 | 99.6 | 83.7 | 65.9 | 98.8 | 99.1 | 98.8 | 98.7 | 98.5 | 99 | 70.2 | 99.5 | 98.6 | 0.07 | 0.23 | 98.3 | 80.1 | FACS binding data [21]: 97.3; FACS binding data [22]: 3.43; FACS binding data [23]: 98.6; FACS binding data [24]: 97.2; FACS binding data [25]: 95.4; Octet signal [26]: 0.154; Octet signal [27]: 0.444; Octet signal [28]: 0.356; Octet signal [29]: 0.37; Octet signal [36]: 0.086; Octet signal [30]: 0.266; Octet signal [32]: 0.239; Octet signal [33]: 0.163; Octet signal [34]: 0.733; Octet signal [35]: 0.648; binding result (CD33 on MOLM-13 cells): binds |
| B4 | 98.6 | 98.7 | 99.1 | 99.5 | 99.6 | 98.1 | 72.4 | 98.7 | 98.8 | 98.7 | 98.9 | 98.5 | 99.1 | 99.1 | 99.4 | 97.8 | 0.15 | 34.6 | 99.1 | 98.4 | FACS binding data [21]: 91.5; FACS binding data [22]: 98.9; FACS binding data [23]: 98.3; FACS binding data [24]: 74.8; FACS binding data [25]: 8.64; Octet signal [26]: 0.139; Octet signal [27]: 0.183; Octet signal [28]: 0.376; Octet signal [29]: 0.2; Octet signal [36]: -0.094; Octet signal [31]: -0.0931; Octet signal [32]: 0.0276; Octet signal [33]: -0.124; Octet signal [34]: 0.457; Octet signal [35]: 0.579; binding result (CD33 on MOLM-13 cells): binds |
